Results as given in patent US20140302034A1 (STEM CENTRX, published 2014).

T1: recombinant human EFNA3 His fusion protein (human, UniProt P52797 23-214)
T1 construct: also called ephrinA3-His; immobilized human EFNA3; not shown: His tag
T1 sequence: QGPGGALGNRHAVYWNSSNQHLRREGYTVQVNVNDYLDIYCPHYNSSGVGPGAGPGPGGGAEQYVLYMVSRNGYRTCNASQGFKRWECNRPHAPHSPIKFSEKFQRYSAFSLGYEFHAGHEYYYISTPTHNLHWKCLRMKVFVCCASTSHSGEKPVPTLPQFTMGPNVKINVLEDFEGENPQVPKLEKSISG

T2: mouse EFNA3 (mouse, UniProt O08545)
T2 construct: the sheet prints only 'Ms XR'; also called mouse ephrin-A3 homolog
T2 sequence (ligand, looked up): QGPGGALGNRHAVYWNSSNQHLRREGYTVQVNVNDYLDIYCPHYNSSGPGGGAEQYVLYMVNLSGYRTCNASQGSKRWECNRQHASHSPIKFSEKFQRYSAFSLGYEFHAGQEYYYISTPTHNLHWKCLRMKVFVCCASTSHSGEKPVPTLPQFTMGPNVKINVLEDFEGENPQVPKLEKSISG


How the values were obtained:
[1] = biological target: T1, recombinant human EFNA3 His fusion …; test: BLI (ForteBio RED), antigen concentration series; column Affinity (nM)
Protocol: Various methods were used to analyze the immunochemical characteristics of selected EFNA1 and EFNA3 modulators generated as set forth above. Specifically, a number of these antibodies were characterized as to affinity, kinetics, binning, and cross reactivity with regard to cynomolgus and mouse homologs (e.g., by ForteBio). The reactivity of the modulators was also measured by Western blot using reduced and non-reduced samples to provide some indication as to whether the epitopes were linear or not. In addition, the antibodies were tested for their ability to neutralize (e.g., block receptor ligand interaction as per Example 11), and were benchmarked for their relative EC₅₀ of killing by in vitro cytotoxicity assay (e.g., as per Examples 12-14). The results of this characterization are set forth in tabular form in FIG. 8 for modulators that primarily react with EFNA1 and in FIG. 9 for modulators that primarily react with EFNA3. Affinities and kinetic constants kₒₙ and koff of the selected modulators were measured using bio-layer interferometry analysis on a ForteBio RED (ForteBio, Inc.) with a standard antigen concentration series.

[2] = biological target: recombinant human EFNA1 His fusion protein (human) (UniProt P20827); test: as above
recombinant human EFNA1 His fusion protein (human), sequence (P20827 19-182 limits assumed): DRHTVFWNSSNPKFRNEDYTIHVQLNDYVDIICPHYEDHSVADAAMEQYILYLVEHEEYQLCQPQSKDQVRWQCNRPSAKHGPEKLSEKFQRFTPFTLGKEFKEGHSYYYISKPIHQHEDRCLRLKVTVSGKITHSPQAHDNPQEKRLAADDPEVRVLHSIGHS

mouse EFNA3 = biological target: T2, mouse EFNA3; test: cross-reactivity with the mouse homolog (e.g. by ForteBio)

| Kd [1] [nM] | Kd [2] [nM] | binding result (mouse EFNA3) | Binder |
| --- | --- | --- | --- |
| 0.2 |  |  | SC11.32 (antibody, V domains shown, Murine monoclonal antibody from a hybridoma; also called EFNA3 modulator SC11.32) VH: QVQLQQPGAEIVRPGASVKLSCKASGYTFTAYWMHWVKQRPGQGPEWIGAIDPSDSYTYYNQKFKGKATLTVDTSSNSAYMQLSSLTSEDSAVYFCARWDYYDGNWGQGTTLTVSS VL: DVVMTQTPLSLPVSLGDQASISCRSSQSLVHSDGNTYLHWYLQKPGQSPKLLIYRVSNRFSGVPDRFSGSGSGTDFTLKISRVEAEDLGVYFCSQSTHVPYTFGGGTKLEIK |
|  | 0.5 |  | SC9.20 (antibody, V domains shown) VH: DVQLQESGPGLVKPSQSLSLTCSVTGYSITSGYYWNWIRQFPGNRLEWMAYISYDGSNDYNPSLKNRISITRDTSKNQFFLKLNSVTTEDTATYYCARGYPILFAYWGQGTLVTVSA VL: DIKMTQSPSSMNASLGERVSITCKTSQDINSYLSWLQQKPGKSPKTLIYRANRLVDGVPSRFSGSGSGQDYSLTISSLEYEDMGIYYCLQYDEFPLTFGIGTKLELK |
| 2 |  | no binding | SC11.34 (antibody, V domains shown, Murine monoclonal antibody from a hybridoma; also called EFNA3 modulator SC11.34) VH: DVHLQETGPGLVKPSQSLSVTCTVTGYSITSDYAWNWIRQFPGNKLEWMGYISYSGGTRYNPSVKSRISITRDTSKNQFFLQLNSVTTEDTATYYCARGPYAGYPAWFDYWGPGTLVTVSA VL: ENVLTQSPAIMSASLGEKVTMSCRANSSINYMYWYQQKSDASPKLWIYYTSNLAPGVPARFSGSGSGNSYSLTISSMEGEDAATYYCQQFTSSPWTFGGGTKLEIK |
| 1 |  |  | SC11.51 (antibody, V domains shown, Murine monoclonal antibody from a hybridoma; also called EFNA3 modulator SC11.51) VH: EVQLQQSGPELVKPGASVKISCKASGYTFTDYYMNWVKQTHGKSLEWIGDITPNSGGPTYNQNFKGKATLTVDRSSTTAFMELRSLTSDDSAVYYCVRSAYYYGTNYDFDYWGQGTTLTVSS VL: QIVLTQSPAIMSASPGEKVTMTCSASSSVTYMYWYQQKPGSSPKPWIYRTSNLASGVPTRFSGSGSGTSYSLTISSVEAEDTATYYCQQYSDYPLTFGAGTKLELK |
